Data from patent publication US20110124565.

Tested on: FVIII L99 (B domain deleted FVIII with R372A and Val374 replaced by a 99 amino acid Gly/Ser linker)

In the case of human activated Protein C, the “remaining FVIII activity (FXa generation test) after addition of human APC with or without protein S” value is reported as “FVIII L99 could be inactivated by human APC with or without Protein S”.
